Measurements taken from the supplement of paper PMC7125110.
± gives the standard error. This sample holds only a part of the variants without activity.

B1: glmS ribozyme (parent)
chain: AUAAAAGCGCCAGAACUACAGAAAUGUAGUUGACGAGGAGGAGGUUUAUCGAAUUUUCGGCGGAUGCCUCCAAA

What was measured:
Settings in all cases: with glucosamine-6-phosphate
glucosamine-6-phosphate [1] = variants of: B1; assay: self-cleavage kobs at 640 uM GlcN6P; higher = faster cleavage; RNA array
Procedure, shortened: (§1)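 Glucosamine-6-phosphate in HEPES/KCl/Mg(OAc)2 buffer, at 40 μM to 10 mM, was flowed over barcoded ribozyme variants transcribed in situ by E. coli RNA polymerase on sequenced MiSeq chips. Tracking was through a hybridised Cy3 probe at 37 °C. kobs, kcat and KM came from exponential decay fits and weighted Michaelis–Menten fits of normalised per-tile medians.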

glucosamine-6-phosphate [2] = variants of: B1; assay: self-cleavage kobs at 2500 uM GlcN6P; higher = faster cleavage; RNA array
Procedure, shortened: as §1

glucosamine-6-phosphate [3] = variants of: B1; assay: self-cleavage kobs at 10000 uM GlcN6P; higher = faster cleavage; RNA array
Procedure, shortened: as §1

C11U U47A A48C C61A C70U C71A
self-cleavage kobs at 640 uM GlcN6P (glucosamine-6-phosphate [1]): < 1e-05 s⁻¹ | self-cleavage kobs at 2500 uM GlcN6P (glucosamine-6-phosphate [2]): < 1e-05 s⁻¹

C11G U30A A33C
self-cleavage kobs at 640 uM GlcN6P (glucosamine-6-phosphate [1]): < 1e-05 s⁻¹ | self-cleavage kobs at 2500 uM GlcN6P (glucosamine-6-phosphate [2]): < 1e-05 s⁻¹

C11A G63A
self-cleavage kobs at 640 uM GlcN6P (glucosamine-6-phosphate [1]): < 1e-05 s⁻¹ | self-cleavage kobs at 2500 uM GlcN6P (glucosamine-6-phosphate [2]): < 1e-05 s⁻¹ | self-cleavage kobs at 10000 uM GlcN6P (glucosamine-6-phosphate [3]): < 1e-05 s⁻¹

A12G G37A A48G G63C
self-cleavage kobs at 640 uM GlcN6P (glucosamine-6-phosphate [1]): < 1e-05 s⁻¹

G9C A15U G26U G63C
self-cleavage kobs at 640 uM GlcN6P (glucosamine-6-phosphate [1]): < 1e-05 s⁻¹

G9C G29A G41A
self-cleavage kobs at 640 uM GlcN6P (glucosamine-6-phosphate [1]): < 1e-05 s⁻¹ | self-cleavage kobs at 2500 uM GlcN6P (glucosamine-6-phosphate [2]): < 1e-05 s⁻¹

C11A G44U A48G C61A
self-cleavage kobs at 640 uM GlcN6P (glucosamine-6-phosphate [1]): < 1e-05 s⁻¹

G13A U54C C70U
self-cleavage kobs at 640 uM GlcN6P (glucosamine-6-phosphate [1]): 9.94e-05 ± 2.2e-05 s⁻¹ | self-cleavage kobs at 2500 uM GlcN6P (glucosamine-6-phosphate [2]): 0.000291 ± 9.6e-05 s⁻¹

G13C A48U A53U C61G
self-cleavage kobs at 640 uM GlcN6P (glucosamine-6-phosphate [1]): < 1e-05 s⁻¹

C10U A39U G41U
self-cleavage kobs at 640 uM GlcN6P (glucosamine-6-phosphate [1]): < 1e-05 s⁻¹

C11A A53C G66U
self-cleavage kobs at 640 uM GlcN6P (glucosamine-6-phosphate [1]): < 1e-05 s⁻¹

G9U C58G G59C
self-cleavage kobs at 640 uM GlcN6P (glucosamine-6-phosphate [1]): < 1e-05 s⁻¹ | self-cleavage kobs at 2500 uM GlcN6P (glucosamine-6-phosphate [2]): < 1e-05 s⁻¹

G13C A42U U57A G63C
self-cleavage kobs at 640 uM GlcN6P (glucosamine-6-phosphate [1]): < 1e-05 s⁻¹ | self-cleavage kobs at 2500 uM GlcN6P (glucosamine-6-phosphate [2]): < 1e-05 s⁻¹

G9U C10U C11A
self-cleavage kobs at 640 uM GlcN6P (glucosamine-6-phosphate [1]): < 1e-05 s⁻¹

G13A U30G G41U U46C G63C
self-cleavage kobs at 640 uM GlcN6P (glucosamine-6-phosphate [1]): < 1e-05 s⁻¹ | self-cleavage kobs at 2500 uM GlcN6P (glucosamine-6-phosphate [2]): < 1e-05 s⁻¹

G13C A14G U56C
self-cleavage kobs at 640 uM GlcN6P (glucosamine-6-phosphate [1]): 6.74e-05 ± 1.6e-05 s⁻¹ | self-cleavage kobs at 2500 uM GlcN6P (glucosamine-6-phosphate [2]): 0.000185 ± 4.6e-05 s⁻¹

G9C G43U U55G A64G
self-cleavage kobs at 640 uM GlcN6P (glucosamine-6-phosphate [1]): < 1e-05 s⁻¹ | self-cleavage kobs at 2500 uM GlcN6P (glucosamine-6-phosphate [2]): < 1e-05 s⁻¹

G9C A12C G13U G44U C67A
self-cleavage kobs at 640 uM GlcN6P (glucosamine-6-phosphate [1]): < 1e-05 s⁻¹

C10U U46A U49A G62A
self-cleavage kobs at 640 uM GlcN6P (glucosamine-6-phosphate [1]): < 1e-05 s⁻¹ | self-cleavage kobs at 2500 uM GlcN6P (glucosamine-6-phosphate [2]): < 1e-05 s⁻¹

G9U G29A U46A G51U C67U
self-cleavage kobs at 640 uM GlcN6P (glucosamine-6-phosphate [1]): < 1e-05 s⁻¹ | self-cleavage kobs at 2500 uM GlcN6P (glucosamine-6-phosphate [2]): < 1e-05 s⁻¹

C11U A15G C70U
self-cleavage kobs at 640 uM GlcN6P (glucosamine-6-phosphate [1]): 0.000677 ± 0.00015 s⁻¹ | self-cleavage kobs at 2500 uM GlcN6P (glucosamine-6-phosphate [2]): 0.00215 ± 0.00061 s⁻¹

C10G G13A G43A C50U
self-cleavage kobs at 640 uM GlcN6P (glucosamine-6-phosphate [1]): < 1e-05 s⁻¹ | self-cleavage kobs at 2500 uM GlcN6P (glucosamine-6-phosphate [2]): < 1e-05 s⁻¹ | self-cleavage kobs at 10000 uM GlcN6P (glucosamine-6-phosphate [3]): < 1e-05 s⁻¹

A12U U30A G38U
self-cleavage kobs at 640 uM GlcN6P (glucosamine-6-phosphate [1]): < 1e-05 s⁻¹

G9U G13C G43A
self-cleavage kobs at 640 uM GlcN6P (glucosamine-6-phosphate [1]): < 1e-05 s⁻¹

C10U A14U G32A A42C
self-cleavage kobs at 640 uM GlcN6P (glucosamine-6-phosphate [1]): < 1e-05 s⁻¹

C10A A64U U69G
self-cleavage kobs at 640 uM GlcN6P (glucosamine-6-phosphate [1]): 0.000351 ± 0.00014 s⁻¹

A12G G38C C68G
self-cleavage kobs at 640 uM GlcN6P (glucosamine-6-phosphate [1]): < 1e-05 s⁻¹ | self-cleavage kobs at 2500 uM GlcN6P (glucosamine-6-phosphate [2]): < 1e-05 s⁻¹

C11G C34G G59A
self-cleavage kobs at 640 uM GlcN6P (glucosamine-6-phosphate [1]): < 1e-05 s⁻¹ | self-cleavage kobs at 2500 uM GlcN6P (glucosamine-6-phosphate [2]): < 1e-05 s⁻¹

A12C U30A G35A
self-cleavage kobs at 640 uM GlcN6P (glucosamine-6-phosphate [1]): < 1e-05 s⁻¹ | self-cleavage kobs at 2500 uM GlcN6P (glucosamine-6-phosphate [2]): < 1e-05 s⁻¹ | self-cleavage kobs at 10000 uM GlcN6P (glucosamine-6-phosphate [3]): < 1e-05 s⁻¹

A12G U57A G60U
self-cleavage kobs at 640 uM GlcN6P (glucosamine-6-phosphate [1]): < 1e-05 s⁻¹ | self-cleavage kobs at 2500 uM GlcN6P (glucosamine-6-phosphate [2]): < 1e-05 s⁻¹ | self-cleavage kobs at 10000 uM GlcN6P (glucosamine-6-phosphate [3]): < 1e-05 s⁻¹

C11U C16A U30A G32C U69G
self-cleavage kobs at 640 uM GlcN6P (glucosamine-6-phosphate [1]): 0.000926 ± 0.00019 s⁻¹

A12C A52U U57A
self-cleavage kobs at 640 uM GlcN6P (glucosamine-6-phosphate [1]): 0.000131 ± 2.7e-05 s⁻¹ | self-cleavage kobs at 2500 uM GlcN6P (glucosamine-6-phosphate [2]): 0.000458 ± 5.1e-05 s⁻¹

C10G C58G G62C
self-cleavage kobs at 640 uM GlcN6P (glucosamine-6-phosphate [1]): < 1e-05 s⁻¹

C11A G32U C70G
self-cleavage kobs at 640 uM GlcN6P (glucosamine-6-phosphate [1]): 0.000101 ± 4.4e-05 s⁻¹

A12C C58U C70U
self-cleavage kobs at 640 uM GlcN6P (glucosamine-6-phosphate [1]): 6.75e-05 ± 2.5e-05 s⁻¹ | self-cleavage kobs at 2500 uM GlcN6P (glucosamine-6-phosphate [2]): 7.09e-05 ± 3.2e-05 s⁻¹

A12G A36C A39C C71G
self-cleavage kobs at 640 uM GlcN6P (glucosamine-6-phosphate [1]): < 1e-05 s⁻¹ | self-cleavage kobs at 2500 uM GlcN6P (glucosamine-6-phosphate [2]): < 1e-05 s⁻¹

C10A U31A U56C
self-cleavage kobs at 640 uM GlcN6P (glucosamine-6-phosphate [1]): < 1e-05 s⁻¹ | self-cleavage kobs at 2500 uM GlcN6P (glucosamine-6-phosphate [2]): < 1e-05 s⁻¹ | self-cleavage kobs at 10000 uM GlcN6P (glucosamine-6-phosphate [3]): < 1e-05 s⁻¹

C10G U49C G66C
self-cleavage kobs at 640 uM GlcN6P (glucosamine-6-phosphate [1]): < 1e-05 s⁻¹ | self-cleavage kobs at 2500 uM GlcN6P (glucosamine-6-phosphate [2]): < 1e-05 s⁻¹

C10U A15C G43U G63U
self-cleavage kobs at 640 uM GlcN6P (glucosamine-6-phosphate [1]): < 1e-05 s⁻¹ | self-cleavage kobs at 2500 uM GlcN6P (glucosamine-6-phosphate [2]): < 1e-05 s⁻¹

C11G G13C A48G
self-cleavage kobs at 640 uM GlcN6P (glucosamine-6-phosphate [1]): < 1e-05 s⁻¹ | self-cleavage kobs at 2500 uM GlcN6P (glucosamine-6-phosphate [2]): < 1e-05 s⁻¹

C10A U69A
self-cleavage kobs at 640 uM GlcN6P (glucosamine-6-phosphate [1]): 0.00013 ± 1.9e-05 s⁻¹ | self-cleavage kobs at 2500 uM GlcN6P (glucosamine-6-phosphate [2]): 3.89e-05 ± 1.5e-05 s⁻¹

C10U A12C G40A
self-cleavage kobs at 640 uM GlcN6P (glucosamine-6-phosphate [1]): < 1e-05 s⁻¹ | self-cleavage kobs at 2500 uM GlcN6P (glucosamine-6-phosphate [2]): < 1e-05 s⁻¹

C11G A53U U55G C67G
self-cleavage kobs at 640 uM GlcN6P (glucosamine-6-phosphate [1]): 0.000112 ± 4.8e-05 s⁻¹

C11U A12C U31G G32U U57G
self-cleavage kobs at 640 uM GlcN6P (glucosamine-6-phosphate [1]): < 1e-05 s⁻¹

G9C A39U A42C U56G
self-cleavage kobs at 640 uM GlcN6P (glucosamine-6-phosphate [1]): < 1e-05 s⁻¹

A12C G29C A42C
self-cleavage kobs at 640 uM GlcN6P (glucosamine-6-phosphate [1]): < 1e-05 s⁻¹

C11A A15U A64C
self-cleavage kobs at 640 uM GlcN6P (glucosamine-6-phosphate [1]): < 1e-05 s⁻¹ | self-cleavage kobs at 2500 uM GlcN6P (glucosamine-6-phosphate [2]): < 1e-05 s⁻¹

C10U A39C G41A U46A
self-cleavage kobs at 640 uM GlcN6P (glucosamine-6-phosphate [1]): < 1e-05 s⁻¹ | self-cleavage kobs at 2500 uM GlcN6P (glucosamine-6-phosphate [2]): < 1e-05 s⁻¹

G13A A14G G29C C50G
self-cleavage kobs at 640 uM GlcN6P (glucosamine-6-phosphate [1]): 0.000185 ± 6.9e-05 s⁻¹

A12U C19U U69A
self-cleavage kobs at 640 uM GlcN6P (glucosamine-6-phosphate [1]): 0.000392 ± 0.0001 s⁻¹ | self-cleavage kobs at 2500 uM GlcN6P (glucosamine-6-phosphate [2]): 0.000303 ± 6e-05 s⁻¹

G9U C16G G29U G40U G41A G66U
self-cleavage kobs at 640 uM GlcN6P (glucosamine-6-phosphate [1]): < 1e-05 s⁻¹ | self-cleavage kobs at 2500 uM GlcN6P (glucosamine-6-phosphate [2]): < 1e-05 s⁻¹

C10A A12C G63C C71G
self-cleavage kobs at 640 uM GlcN6P (glucosamine-6-phosphate [1]): < 1e-05 s⁻¹

C11G G44U U46G U47A G59A A64U C67A
self-cleavage kobs at 640 uM GlcN6P (glucosamine-6-phosphate [1]): < 1e-05 s⁻¹

C11A G37C U65G
self-cleavage kobs at 640 uM GlcN6P (glucosamine-6-phosphate [1]): < 1e-05 s⁻¹

C11G U31A U47C C61G
self-cleavage kobs at 640 uM GlcN6P (glucosamine-6-phosphate [1]): < 1e-05 s⁻¹ | self-cleavage kobs at 2500 uM GlcN6P (glucosamine-6-phosphate [2]): < 1e-05 s⁻¹

A12U A48C C58A
self-cleavage kobs at 640 uM GlcN6P (glucosamine-6-phosphate [1]): < 1e-05 s⁻¹ | self-cleavage kobs at 2500 uM GlcN6P (glucosamine-6-phosphate [2]): < 1e-05 s⁻¹

G13A A42C G44U
self-cleavage kobs at 640 uM GlcN6P (glucosamine-6-phosphate [1]): < 1e-05 s⁻¹

C10A A53G C70G
self-cleavage kobs at 640 uM GlcN6P (glucosamine-6-phosphate [1]): 0.000157 ± 4.8e-05 s⁻¹ | self-cleavage kobs at 2500 uM GlcN6P (glucosamine-6-phosphate [2]): 0.000151 ± 4.6e-05 s⁻¹

G13C G43U G59U
self-cleavage kobs at 640 uM GlcN6P (glucosamine-6-phosphate [1]): < 1e-05 s⁻¹ | self-cleavage kobs at 2500 uM GlcN6P (glucosamine-6-phosphate [2]): < 1e-05 s⁻¹

A12U A15G G41A C61A
self-cleavage kobs at 640 uM GlcN6P (glucosamine-6-phosphate [1]): < 1e-05 s⁻¹

C10G C11A C16A C58G C71G
self-cleavage kobs at 640 uM GlcN6P (glucosamine-6-phosphate [1]): 0.00176 ± 0.00062 s⁻¹ | self-cleavage kobs at 2500 uM GlcN6P (glucosamine-6-phosphate [2]): 0.000241 ± 0.0001 s⁻¹

C11U U31C G41C U49C G62A
self-cleavage kobs at 640 uM GlcN6P (glucosamine-6-phosphate [1]): < 1e-05 s⁻¹

G13C G32A U45A A52U G60A G62C A64G C68U
self-cleavage kobs at 640 uM GlcN6P (glucosamine-6-phosphate [1]): < 1e-05 s⁻¹ | self-cleavage kobs at 2500 uM GlcN6P (glucosamine-6-phosphate [2]): < 1e-05 s⁻¹
